Source: publication PMC11028011

molecular target: neonatal Fc receptor (FcRn) protein, immobilized on a column (UniProt P55899); assay: FcRn affinity chromatography; FcRn immobilised on an affinity column (Roche); 30 µg antibody in 20 mM MES, 140 mM NaCl pH 5.5; 10 min at 20% buffer B (20 mM Tris, 140 mM NaCl pH 8.8), then 20-100% buffer B over 80 min; 0.5 mL/min
Chain of UniProt P55899 (P55899 24-297): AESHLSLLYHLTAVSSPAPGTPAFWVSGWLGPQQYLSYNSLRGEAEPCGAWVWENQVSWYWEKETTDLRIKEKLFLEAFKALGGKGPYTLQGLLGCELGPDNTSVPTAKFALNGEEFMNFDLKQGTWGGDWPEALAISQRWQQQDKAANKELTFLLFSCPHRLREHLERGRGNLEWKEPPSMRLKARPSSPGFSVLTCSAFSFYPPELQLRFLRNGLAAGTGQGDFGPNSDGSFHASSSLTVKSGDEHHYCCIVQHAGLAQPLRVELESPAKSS

Row | FcRn ret. time | Substance
1 | 46.4 min | Bapi-Fab8D3 (bispecific bapineuzumab IgG1, knobs-into-holes, with a single-chain Fab of the TfR antibody 8D3 on the C-terminus of one heavy chain; L234A, L235A, P329G) (bispecific antibody)
2 | 46.4 min | Bapi (monospecific bapineuzumab IgG with effector function reducing mutations L234A, L235A, P329G) (antibody)
3 | 46.4 min | Bapi (control), control variant without mutations (antibody)
